Assay results from patent US20080026996A1, “Selective Vpac2 Receptor Reptide Agonists” (ELI LILLY AND COMPANY, priority 2004, published 2008).
Like-named read-outs stand apart in the source and are kept apart here. Where no end group is shown, it is not given here. [ ]: non-standard residue; d: D form. The star is where a group is joined. hArg = N=C(N)NCCCC[C@H](N)C(=O)O; Hexanoyl = CCCCCC(=O)*; Aib = CC(C)(N)C(=O)O

T1: human VPAC2 (Homo sapiens, UniProt P41587)
T1 construct: expressed in transfected cells
T1 sequence (P41587 24-438): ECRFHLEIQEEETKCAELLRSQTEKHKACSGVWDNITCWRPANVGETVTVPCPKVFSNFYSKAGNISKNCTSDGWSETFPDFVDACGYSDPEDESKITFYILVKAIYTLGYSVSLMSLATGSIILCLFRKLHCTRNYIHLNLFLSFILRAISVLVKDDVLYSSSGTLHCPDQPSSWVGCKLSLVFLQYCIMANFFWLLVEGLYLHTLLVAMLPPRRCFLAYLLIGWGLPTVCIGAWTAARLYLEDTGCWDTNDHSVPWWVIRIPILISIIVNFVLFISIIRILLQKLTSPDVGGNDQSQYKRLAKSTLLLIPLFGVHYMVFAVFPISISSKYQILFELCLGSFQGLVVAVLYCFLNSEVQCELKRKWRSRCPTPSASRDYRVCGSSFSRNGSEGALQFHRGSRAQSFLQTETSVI

T2: human PAC1 (Homo sapiens, UniProt P41586)
T2 sequence (P41586 21-468): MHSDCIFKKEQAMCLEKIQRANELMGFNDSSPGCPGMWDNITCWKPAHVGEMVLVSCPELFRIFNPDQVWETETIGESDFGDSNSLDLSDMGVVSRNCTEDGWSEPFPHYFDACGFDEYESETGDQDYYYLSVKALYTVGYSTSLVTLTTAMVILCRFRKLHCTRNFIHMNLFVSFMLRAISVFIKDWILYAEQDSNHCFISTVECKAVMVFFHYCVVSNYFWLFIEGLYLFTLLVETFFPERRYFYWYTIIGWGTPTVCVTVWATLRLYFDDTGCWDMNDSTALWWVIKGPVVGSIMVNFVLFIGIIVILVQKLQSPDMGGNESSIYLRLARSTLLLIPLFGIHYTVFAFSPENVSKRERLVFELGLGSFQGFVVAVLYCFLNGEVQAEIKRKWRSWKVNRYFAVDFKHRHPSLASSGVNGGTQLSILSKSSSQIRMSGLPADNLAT

T3: human VPAC1 (Homo sapiens, UniProt P32241)
T3 sequence (P32241 31-457): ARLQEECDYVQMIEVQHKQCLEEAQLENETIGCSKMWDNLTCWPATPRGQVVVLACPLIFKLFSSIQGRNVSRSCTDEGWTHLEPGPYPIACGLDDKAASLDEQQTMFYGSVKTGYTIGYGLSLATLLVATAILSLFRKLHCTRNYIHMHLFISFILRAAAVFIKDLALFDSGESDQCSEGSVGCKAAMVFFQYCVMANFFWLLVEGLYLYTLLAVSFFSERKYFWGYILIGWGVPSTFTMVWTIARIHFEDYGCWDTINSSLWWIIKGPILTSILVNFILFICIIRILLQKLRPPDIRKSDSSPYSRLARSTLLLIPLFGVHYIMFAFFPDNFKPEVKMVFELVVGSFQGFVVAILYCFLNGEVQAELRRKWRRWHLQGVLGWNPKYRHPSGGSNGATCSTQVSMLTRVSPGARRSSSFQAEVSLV

T4: human PAC1 receptor (human, UniProt P41586 21-468)
T4 sequence (looked up): T2 sequence (P41586 21-468)

T5: human VPAC1 receptor (human, UniProt P32241 31-457)
T5 sequence (looked up): T3 sequence (P32241 31-457)

T6: human VPAC2 receptor (human, UniProt P41587 24-438)
T6 sequence (looked up): T1 sequence (P41587 24-438)


Key:
[1] = molecular target: T1, human VPAC2; assay: Filter binding assay, membranes of stable VPAC2 cell line, 125I-labeled VIP tracer (Table 2); settings: read-out: Human VPAC2 Receptor Binding
Outline: (§1)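 Scintillation counting of filter-retained radioligand gave the read-out. Compounds competed with the labelled tracer (about 40000 cpm) for 2.5 μg membranes during 1 hour of shaking in HEPES pH 7.4 buffer containing 0.5% BSA.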

[2] = Rat serum stability studies (remaining active peptide by DiscoveRx cAMP on CHO-VPAC2 cells); type: in vitro ADME
Outline: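 Rat serum, 18 h: +aprotinin aliquot at 4° C, no-aprotinin aliquot at 37° C. Then 30 min RT step, supernatant removed, 1 h shaking at 300 rpm. DiscoveRx cAMP kit on CHO-VPAC2; EC50 from cAMP data vs standards.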

[3] = molecular target: T2, human PAC1; assay: Filter binding assay, membranes of cells transiently transfected with human PAC1, 125I-labeled PACAP-27 tracer (Table 2); set-up: expressed in transfected cells; settings: read-out: Human PAC1 Receptor Binding
Outline: as §1

[4] = molecular target: T3, human VPAC1; assay: Filter binding assay, membranes of cells transiently transfected with human VPAC1, 125I-labeled VIP tracer (Table 2); set-up: expressed in transfected cells; settings: read-out: Human VPAC1 Receptor Binding
Outline: as §1

[5] = molecular target: T1, human VPAC2; assay: Alpha screen cAMP in vitro potency, human VPAC2 receptor; type: cell-based; settings: cAMP generation; single result from two analyses performed in a single run; read-out: Human VPAC2 Receptor: Alpha Screen EC50
Outline: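 Stimulated cAMP accumulation is read by AlphaScreen after 60 min exposure of 50,000 non-enzymatically harvested cells to compound, followed by lysis with donor beads.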

[6] = molecular target: T4, human PAC1 receptor; assay: cell-based or functional assay
[7] = molecular target: T5, human VPAC1 receptor; assay: cell-based or functional assay
[8] = molecular target: T6, human VPAC2 receptor; assay: cell-based or functional assay

Molecule | EC50 cAMP, DiscoveRx [6] [nM] | EC50 cAMP, DiscoveRx [7] [nM] | EC50 cAMP, DiscoveRx [8] [nM] | also measured
Hexanoyl-HSDAVFTDNYTRL[Aib]KQLAA[Aib]KYLQSIKNKRYGGPSSGAPPPS [Agonist P240] |  |  |  | IC50 [1]: 6.08 nM; Rat Serum Stability (Estimated purity in % after 72 hours) [2]: 10.4%; Rat Serum Stability (estimated purity in % after 18 hours) [2]: 43.87%; IC50 [3]: > 25000 nM; IC50 [4]: > 3000 nM; EC50 [5]: 0.51 nM
Hexanoyl-HSDAVFTDNYTRLRKQVAAKQYLQSIKNKRYGGPSSGAPPPS [Agonist P183] |  |  |  | IC50 [1]: 0.26 nM; Rat Serum Stability (estimated purity in % after 18 hours) [2]: 0.18%; IC50 [3]: 506 nM; IC50 [4]: 424 nM; EC50 [5]: 0.14 nM
Hexanoyl-HSDAVFTDNYTRLRKQVAAWKYLQSIKNKRYGGPSSGAPPPS [Agonist P153] |  |  |  | IC50 [1]: 0.7 nM; Rat Serum Stability (estimated purity in % after 18 hours) [2]: <0.16%; IC50 [3]: 1130 nM; IC50 [4]: 181 nM; EC50 [5]: 0.11 nM
Hexanoyl-HSDAVFTDNYTRLRKQLAAKKYLQSIKNKRYGGPSSGAPPPS [Agonist P290] |  |  |  | IC50 [1]: 0.27 nM; Rat Serum Stability (estimated purity in % after 18 hours) [2]: 0.11%; IC50 [3]: 209 nM; IC50 [4]: 221 nM; EC50 [5]: 0.22 nM
HSDAVFTDNYTRLRKQVAA[hArg]KYLQSIKNKRYGGPSSGAPPPS (ends and bridges not checked) [P18] | > 50 | 0.4 |  | EC50 cAMP, DiscoveRx ([6]; record 2): 435 nM
HSDAVFTDNYTRLRKQVAAIKYLQSIKNKRYGGPSSGAPPPS (not fully specified) [P19] |  | 2.9 | 9.03 | 
HSDAVFTDNYTRLRKQVAARKYLQSIKNKRYGGPSSGAPPPS [P20] | > 25 | 2 | 2.13 | EC50 cAMP, Alpha Screen [8]: 2.77 nM
HSDAVFTDNYTRLRKQVAASKYLQSIKNKRYGGPSSGAPPPS [P21] | > 100 | 10.7 | 6.87 | EC50 cAMP, Alpha Screen [8]: 11.6 nM
HSDAVFTDNYTRLRKQVAAKKYLQSIRNKRYGGPSSGAPPPS [P23] | 98.3 | 0.9 | 1.41 | EC50 cAMP, Alpha Screen [8]: 2.3 nM
HSDAVFTDNYTRLRKQVAAKKYLQSIKNRRYGGPSSGAPPPS [P25] | 137 | 2.7 | 3.02 | 
H[dA]DAVFTDNYTRLRKQVAAKKYLQSIKNKRYGGPSSGAPPPS [P47] | 136 | 3.6 | 1.07 | EC50 cAMP, Alpha Screen [8]: 1.39 nM
HSDAVFTDNYTRLRRQVAARRYLQSIRNRRYGGPSSGAPPPS (not fully specified) [P71] | 14.6 | 0.2 | 3.14 | 
HSDAVFTDNYTRLRRQVAAKKYLQSIKNKRYGGPSSGAPPPS [P72] | 35.3 | 0.3 | 1.79 | 
HSDAVFTDNYTRLRKQVAAKKYLQSI[hArg]NKRYGGPSSGAPPPS (ends and bridges not checked) [P22] | 73.5 | 0.9 | 1.18 | EC50 cAMP, Alpha Screen [8]: 2.23 nM
HSDAVFTDNYTRLRKQVAAKKYLQSIKN[hArg]RYGGPSSGAPPPS (ends and bridges not checked) [P24] | > 100 | 2.5 | 5.78 | 
HSDAVFTDNYTRFRKQVAAKKYLQSIKNKRYGGPSSGAPPPS [P26] | 84 | 0.9 | 4.81 | 
HSDAVFTDNWTRLRKQVAAKKYLQSIKNKRYGGPSSGAPPPS [P27] | > 100 | 5.2 | 27.6 | 
HSDAVFTDNYTRLRKQVAAKKYLQSIKNKRHGGPSSGAPPPS [P28] | 53.6 | 2.6 | 3.92 | 
Ac-HSDAVFTDNYTRLRKQVAAKKYLQSIKNKRYGGPSSGAPPPS [P33] | 112 | 4.7 | 0.86 | EC50 cAMP, Alpha Screen [8]: 0.73 nM
HSDAVFTDNYTRLRKQVAAKKYLQSIKNKRF [P34] | 80.5 | 0.8 | 2.28 | EC50 cAMP, Alpha Screen [8]: 2.44 nM
HSDAVFTDNYTRLRKQVAAKKYLQSIKNKRYC [P37] | 35.6 | 6.4 | 1.68 | 
HGDAVFTDNYTRLRKQVAAKKYLQSIKNKRYGGPSSGAPPPS [P43] | 104 | 75.6 | 5.37 | 
HVDAVFTDNYTRLRKQVAAKKYLQSIKNKRYGGPSSGAPPPS (not fully specified) [P44] | 36.6 | 5.5 | 0.92 | 
HTDAVFTDNYTRLRKQVAAKKYLQSIKNKRYGGPSSGAPPPS [P45] | 316 | 1.75 | 11.6 | 
HLDAVFTDNYTRLRKQVAAKKYLQSIKNKRYGGPSSGAPPPS [P46] | > 1000 | 57.5 | 121 | 
H[dS]DAVFTDNYTRLRKQVAAKKYLQSIKNKRYGGPSSGAPPPS [P48] | 95.9 | 9.93 | 9.55 | 
HSDIVFTDNYTRLRKQVAAKKYLQSIKNKRYGGPSSGAPPPS (not fully specified) [P50] |  | 111 | 19.2 | 
